{
  "source": "paper PMC4712133",
  "about": "(2016)",
  "binders": {"B1": {"name": "lactoferrin purified from human milk (natural protein)", "chain": "GRRRSVQWCAVSQPEATKCFQWQRNMRKVRGPPVSCIKRDSPIQCIQAIAENRADAVTLDGGFIYEAGLAPYKLRPVAAEVYGTERQPRTHYYAVAVVKKGGSFQLNELQGLKSCHTGLRRTAGWNVPIGTLRPFLNWTGPPEPIEAAVARFFSASCVPGADKGQFPNLCRLCAGTGENKCAFSSQEPYFSYSGAFKCLRDGAGDVAFIRESTVFEDLSDEAERDEYELLCPDNTRKPVDKFKDCHLARVPSHAVVARSVNGKEDAIWNLLRQAQEKFGKDKSPKFQLFGSPSGQKDLLFKDSAIGFSRVPPRIDSGLYLGSGYFTAIQNLRKSEEEVAARRARVVWCAVGEQELRKCNQWSGLSEGSVTCSSASTTEDCIALVLKGEADAMSLDGGYVYTAGKCGLVPVLAENYKSQQSSDPDPNCVDRPVEGYLAVAVVRRSDTSLTWNSVKGKKSCHTAVDRTAGWNIPMGLLFNQTGSCKFDEYFSQSCAPGSDPRSNLCALCIGDEQGENKCVPNSNERYYGYTGAFRCLAENAGDVAFVKDVTVLQNTDGNNNEAWAKDLKLADFALLCLDGKRKPVTEARSCHLAMAPNHAVVSRMDKVERLKQVLLHQQAKFGRNGSDCPDKFCLFQSETKNLLFNDNTECLARLHGKTTYEKYLGPQYVAGITNLKKCSTSPLLEACEFLRK"}, "B2": {"name": "secretory leukocyte peptidase inhibitor (SLPI), recombinant human (natural protein)", "chain": "SGKSFKAGVCPPKKSAQCLRYKKPECQSDWQCPGKKRCCPDTCGIKCLDPVDTPNPTRRKPGKCPVTYGQCLMLNPPNFCEMDGQCKRDLKCCMGMCGKSCVSPVKA"}, "B3": {"name": "human beta defensin-3 (hBD-3) (natural protein)", "chain": "GIINTLQKYYCRVRGGRCAVLSCLPKEEQIGKCSTRGRKCCRRKK", "modifications": "ends and bridges not checked; cysteine pairing not given here"}, "B4": {"name": "midkine (natural protein)", "chain": "VAKKKDKVKKGGPGSECAEWAWGPCTPSSKDCGVGFREGTCGAQTQRIRCRVPCNWKKEFGADCKYKFENWGACDGGTGTKVRQGTLKKARYNAQCQETIRVTKPCTPKTKAKAKAKKGKGKD"}},
  "note": "No end group written: not given here.",
  "data": [
    {"biological_target": "T1, osteopontin (OPN), recombinant human (human, UniProt P10451 17-314)", "T1 sequence (P10451 17-314)": "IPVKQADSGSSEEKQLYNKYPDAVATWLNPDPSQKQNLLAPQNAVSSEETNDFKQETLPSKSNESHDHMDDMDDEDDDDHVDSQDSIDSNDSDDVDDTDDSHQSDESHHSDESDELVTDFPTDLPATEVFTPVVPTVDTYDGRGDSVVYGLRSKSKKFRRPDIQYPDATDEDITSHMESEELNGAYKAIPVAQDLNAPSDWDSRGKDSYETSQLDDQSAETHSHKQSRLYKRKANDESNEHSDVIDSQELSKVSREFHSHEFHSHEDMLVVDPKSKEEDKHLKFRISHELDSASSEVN", "assay": "SPR", "units": {"koff": "s⁻¹"}, "values": [
      {"binder": "B1", "koff": 0.01},
      {"binder": "B2", "koff": 0.0016},
      {"binder": "B3", "koff": 0.02}
    ]},
    {"biological_target": "T1, osteopontin (OPN), recombinant human", "assay": "SPR", "remark": "another data set of the same source", "units": {"Kd": "nM"}, "values": [
      {"binder": "B1", "Kd": 2500},
      {"binder": "B4", "Kd": 27},
      {"binder": "B2", "Kd": 430},
      {"binder": "B3", "Kd": 790}
    ]}
  ]
}
